We go through one molecule from US20260242465A1 (CELSIUS THERAPEUTICS, published 2026).

The target in assay [1] is T1, hFcγRIIA167R (human, UniProt P12318 34-218).
T1 construct: also called FcγRII (167R polymorphism); not shown: His tag
T1 sequence (looked up): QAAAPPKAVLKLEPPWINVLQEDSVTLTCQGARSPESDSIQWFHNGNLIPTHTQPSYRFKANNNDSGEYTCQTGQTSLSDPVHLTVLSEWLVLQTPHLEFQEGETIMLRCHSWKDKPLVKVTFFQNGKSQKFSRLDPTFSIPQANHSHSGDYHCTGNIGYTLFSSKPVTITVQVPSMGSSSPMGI
Put plainly: SPR (Biacore T200), single-cycle kinetics; His-tagged FcγR captured, antibody as analyte; replicate 1. From the text:
(§1) Human Fc receptors, FcγRI, FcγRII (both 167R and 167H polymorphisms), FcγRIIB, FcγRIIIA (both 176F and 176V polymorphisms) and FcγRIIIB were obtained from Sino Biological (Beijing, China). FcγR were captured on a CM5 sensor chip pre-coupled using a His capture kit (Cytiva, Uppsala, Sweden) using standard amine chemistry.
(§2) At the start of each cycle, His-tagged Fcγ receptors diluted in HBS-P+ (Cytiva, Uppsala, Sweden) were loaded to a specific RU level. A five point, three-fold dilution range of test antibody without regeneration between each concentration was used for each receptor tested. Antibodies were passed over the chip in increasing concentrations followed by a single dissociation step. Following dissociation, the chip was regenerated with two injections of glycine (pH 1.5).

Assay [2] concerns the target T2, hFcγRIIIA176V (human, UniProt P08637 17-208).
T2 construct: Bought; also called FcγRIIIA (176V polymorphism); not shown: His tag
The assay is described as above.
Text: as §1, §2

For assay [3], the target named is T1, hFcγRIIA167R. Put plainly: SPR (Biacore T200), single-cycle kinetics; replicate 2.
Text: as §1, §2

Assay [4] deals with T2, hFcγRIIIA176V. Described as above.
Text: as §1, §2

Assay [5] deals with T1, hFcγRIIA167R. Put plainly: SPR (Biacore T200), single-cycle kinetics; replicate 1.
Text: as §1, §2

In assay [6] the target is T2, hFcγRIIIA176V. Described as above.
Text: as §1, §2

The target in assay [7] is T3, recombinant hTREM1-chFc1 (human).
T3 construct: the whole entry is named; Captured on Octet AHC biosensors; also called immobilized TREM1-ECD; immobilized TREM1 protein
Put plainly: BLI competition; hTREM1-chFc1 on AHC biosensor, antibody titrated 200 to 0.012 nM for 300 s, then 971 nM PGLYRP1 (competitor: PGLYRP1). As for the experimental part: (§3) The data was fitted with the sigmoidal (four-parameter) nonlinear regression equation. […] The data is from a single experiment that is representative of three replicates.
(§4) Briefly, recombinant hTREM1-chFc1 was immobilized on Octet AHC biosensors and then blocked with 100 μg/mL hIgG1-Fc. […] The incubation time between mAb and immobilized TREM1-ECD is limited to 300 s, thus limiting the amount of antibody that can bind to the immobilized TREM1, particularly at the sub-saturation concentrations.

Assay [8] concerns the target T3, recombinant hTREM1-chFc1. Put plainly: bio-layer interferometry blocking assay: hTREM1-chFc1 on AHC biosensors, antibody titrated, then PGLYRP1 (blocked ligand, 971 nM per paragraph 383). As for the experimental part:
as §3, §4

In the next assay the target is T4, purified human C1q (human, UniProt P02745 23-245; P02746 28-253; P02747 29-245).
T4 construct: Purified from HyCult Biotech; also called complement protein C1q
Put plainly: ELISA; antibody coated in serial dilutions, human C1q at 5 µg/ml, anti-C1q-HRP. As for the experimental part:
Plates were blocked with IX PBS (pH 7.4) with 2% w/v BSA. After blocking, purified human C1q (HyCult Biotech, Wayne, Pennsylvania) at 5 μg/ml was added to the ELISA plates for binding, Plates were washed an anti-C1q-HRP (Abcam, Cambridge, UK) was diluted 1:1000 in blocking buffer and added to the ELISA plates for detection. After washing, TMB microwell peroxidase substrate (Life Technologies) was added for detection. The reaction was stopped with TMB stop solution (VWR, Lutterworth, Leicestershire) after 5 minutes. Absorbance was read at 450 nm using a SpectraMax M3 plate reader (Molecular Devices, Wokingham, UK).

For assay [9], the target named is T5, recombinant monovalent dog TREM1-ECD (dog (Canis familiaris)).
T5 construct: whole entry named
T5 chain: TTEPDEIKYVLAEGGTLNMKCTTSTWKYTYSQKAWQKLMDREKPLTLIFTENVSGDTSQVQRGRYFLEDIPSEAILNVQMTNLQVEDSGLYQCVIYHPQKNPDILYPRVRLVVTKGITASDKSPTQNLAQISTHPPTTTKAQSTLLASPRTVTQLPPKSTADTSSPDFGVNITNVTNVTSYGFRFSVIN
Put plainly: BLI; antibody on AHC sensor, monovalent TREM1-ECD in solution. From the text:
(§5) Sensors were monitored to establish a baseline.
(§6) The coefficient of determination of the 1:1 model fit to the BLI sensorgrams is represented by the R\hat{ }2 value. Data for human and cynomolgus monkey represents averages across three replicates. Data for pig, dog, rabbit, rat, and mouse represents averages across two replicates.

Assay [10] has as its target T6, recombinant monovalent rabbit TREM1-ECD (rabbit).
T6 construct: extracellular domain
The description is as above.
Text: as §5, §6

Assay [11] has as its target T7, recombinant monovalent mouse TREM1-ECD (mouse, UniProt Q9JKE2 21-202).
T7 construct: whole entry named
T7 sequence: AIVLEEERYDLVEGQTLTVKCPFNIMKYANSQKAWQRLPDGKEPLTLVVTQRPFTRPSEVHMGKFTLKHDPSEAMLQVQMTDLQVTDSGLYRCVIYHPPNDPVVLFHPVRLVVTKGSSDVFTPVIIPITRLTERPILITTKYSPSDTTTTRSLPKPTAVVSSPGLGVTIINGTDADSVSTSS
The description is as above.
Text: as §5, §6

Assay [12] has as its target T8, recombinant monovalent cynomolgus monkey TREM1-ECD (cynomolgus monkey).
T8 construct: whole entry named; also called cyno TREM1-ECD
T8 chain: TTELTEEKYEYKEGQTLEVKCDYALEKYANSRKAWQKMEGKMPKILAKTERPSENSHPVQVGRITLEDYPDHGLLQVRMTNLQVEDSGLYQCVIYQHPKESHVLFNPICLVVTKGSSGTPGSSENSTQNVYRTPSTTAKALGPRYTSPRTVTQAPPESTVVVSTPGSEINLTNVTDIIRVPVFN
The assay is described as above.
Text: as §5, §6

In assay [13] the target is T9, recombinant monovalent pig TREM1-ECD (pig (Sus scrofa), UniProt Q6TYI6 21-210).
T9 construct: whole entry named
T9 sequence: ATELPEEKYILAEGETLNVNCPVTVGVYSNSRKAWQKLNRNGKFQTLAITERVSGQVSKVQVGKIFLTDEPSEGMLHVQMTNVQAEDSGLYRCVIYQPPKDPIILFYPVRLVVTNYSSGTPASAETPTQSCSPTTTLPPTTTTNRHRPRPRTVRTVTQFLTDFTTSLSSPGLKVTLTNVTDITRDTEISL
The assay is described as above.
Text: as §5, §6

For assay [14], the target named is T10, human TREM2-ECD fused to an Fc domain (human, UniProt Q9NZC2 19-174).
T10 construct: extracellular domain; the text tells one result for TREM2-ECD, so they are written as one molecule; also called human TREM2-ECD (BioLegend, 786404 and R&D Systems, 1828-T2-050); not shown: Fc domain
T10 sequence (looked up): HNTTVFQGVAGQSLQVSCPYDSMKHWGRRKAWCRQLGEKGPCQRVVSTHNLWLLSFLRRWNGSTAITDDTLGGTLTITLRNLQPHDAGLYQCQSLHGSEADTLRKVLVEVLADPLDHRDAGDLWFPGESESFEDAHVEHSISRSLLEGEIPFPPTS
Put plainly: bio-layer interferometry, TREM2-ECD-Fc immobilised on the sensor, antibody in solution, maximum response. How it is done:
In addition to TREM1, the TREM gene family also includes TREM2. […] Without wishing to be bound by any particular theory, TREM1 and TREM2 are thought to play opposing roles in modulating immune responses; see e.g., Sharif and Knapp, Immunobiology, 213(9-10):701-713 (2008). […] Briefly, 10 μg/mL TREM2-ECD fused to an Fc domain was immobilized on a sensor. Sensors were quenched and monitored to establish a baseline. […] The maximum BLI response was measured (FIG. 13).

The target of assay [15] is T11, cynomolgus monkey TREM1 on neutrophils (cynomolgus monkey).
T11 construct: Endogenous receptor on neutrophils of dosed animals (receptor occupancy by flow cytometry); also called free TREM1 receptors on neutrophils (cynomolgus)
T11 chain: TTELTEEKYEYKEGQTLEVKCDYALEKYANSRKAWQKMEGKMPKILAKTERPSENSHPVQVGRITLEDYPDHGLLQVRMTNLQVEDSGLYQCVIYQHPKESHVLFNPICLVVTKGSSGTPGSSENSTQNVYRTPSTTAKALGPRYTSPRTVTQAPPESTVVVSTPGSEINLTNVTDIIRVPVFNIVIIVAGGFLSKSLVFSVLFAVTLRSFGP
Put plainly: flow cytometry of whole blood, free TREM1 on neutrophils (percent of baseline) in cynomolgus monkeys dosed IV once weekly for 14 weeks.

Assay [16] deals with T12, human TREM2 expressed on HEK293 cells (human, UniProt Q9NZC2 19-230).
T12 construct: whole, on cells; Named member of the array of more than 6,000 human membrane proteins; also called TREM2 (membrane protein array)
T12 sequence (looked up): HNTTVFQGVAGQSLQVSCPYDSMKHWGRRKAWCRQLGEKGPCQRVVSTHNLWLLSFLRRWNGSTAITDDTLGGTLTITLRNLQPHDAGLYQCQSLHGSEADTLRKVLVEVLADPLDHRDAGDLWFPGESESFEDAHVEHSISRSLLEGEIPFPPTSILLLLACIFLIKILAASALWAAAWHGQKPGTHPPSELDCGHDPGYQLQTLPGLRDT
Put plainly: polyspecificity assay; flow cytometry on transfected HEK293 cells. From the text: Transient transfection was used to express an array of each of more than 6,000 human membrane proteins including TREM2 and other TREM family members on the surface of HEK293 cells. […] TMEM178A is an intracellular protein that localizes to the endoplasmic reticulum; see e.g., Decker et al., Proc. Natl. Acad. Sci., 112(51):15654-9 (2015).

Assay [17] concerns the target T1, hFcγRIIA167R. Put plainly: SPR (Biacore T200), single-cycle kinetics; His-tagged FcγR captured, antibody as analyte; replicate 2.
Text: as §1, §2

For assay [18], the target named is T2, hFcγRIIIA176V. The assay is described as above.
Text: as §1, §2

T2 sequence (P08637 17-208 F176V): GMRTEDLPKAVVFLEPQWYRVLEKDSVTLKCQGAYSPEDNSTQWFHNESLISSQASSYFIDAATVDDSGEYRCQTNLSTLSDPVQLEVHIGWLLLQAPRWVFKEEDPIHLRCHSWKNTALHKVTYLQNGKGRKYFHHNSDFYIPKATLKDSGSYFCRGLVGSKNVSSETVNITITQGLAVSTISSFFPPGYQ
T3 sequence (Q9NP99 21-205): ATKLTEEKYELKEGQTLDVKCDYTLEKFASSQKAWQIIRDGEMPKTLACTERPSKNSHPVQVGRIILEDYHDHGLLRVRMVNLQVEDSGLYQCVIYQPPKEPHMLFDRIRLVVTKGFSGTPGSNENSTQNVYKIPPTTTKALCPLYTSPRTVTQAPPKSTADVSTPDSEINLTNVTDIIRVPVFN
T4 sequence (P02745 23-245 limits assumed, chain 1 of 3): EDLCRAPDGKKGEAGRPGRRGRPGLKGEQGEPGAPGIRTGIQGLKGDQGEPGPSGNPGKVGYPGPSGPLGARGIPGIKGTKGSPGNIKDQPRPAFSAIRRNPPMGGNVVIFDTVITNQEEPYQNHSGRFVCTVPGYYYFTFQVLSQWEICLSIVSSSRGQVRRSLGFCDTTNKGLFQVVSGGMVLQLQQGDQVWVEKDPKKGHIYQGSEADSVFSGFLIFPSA
T4 sequence (P02746 28-253 limits assumed, chain 2 of 3): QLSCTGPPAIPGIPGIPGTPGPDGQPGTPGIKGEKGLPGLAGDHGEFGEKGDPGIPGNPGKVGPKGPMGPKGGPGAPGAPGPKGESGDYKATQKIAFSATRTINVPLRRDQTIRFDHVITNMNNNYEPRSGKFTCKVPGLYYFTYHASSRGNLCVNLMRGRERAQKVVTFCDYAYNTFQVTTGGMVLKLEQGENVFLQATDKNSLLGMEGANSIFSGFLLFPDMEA
T4 sequence (P02747 29-245 limits assumed, chain 3 of 3): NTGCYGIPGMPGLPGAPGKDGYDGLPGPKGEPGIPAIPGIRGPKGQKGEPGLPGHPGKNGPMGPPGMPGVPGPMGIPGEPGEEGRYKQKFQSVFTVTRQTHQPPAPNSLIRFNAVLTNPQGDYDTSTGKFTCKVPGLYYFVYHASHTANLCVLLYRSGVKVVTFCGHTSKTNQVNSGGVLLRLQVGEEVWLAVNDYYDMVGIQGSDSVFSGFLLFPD

B1: anti-TREM1 antibody agent clone A (antibody, human IgG1, kappa)
heavy: EVQLVESGGVLVQPGGSLRLSCAASGITFSNSWMSWVRQAPGKGLEWVANIKQDGSEKYYVDSVKGRFTISRDNAKESLFLQMNSLRAEDTAVYYCARGGISTFDIWGQGTMVTVSSASTKGPSVFPLAPSSKSTSGGTAALGCLVKDYFPEPVTVSWNSGALTSGVHTFPAVLQSSGLYSLSSVVTVPSSSLGTQTYICNVNHKPSNTKVDKKVEPKSCDKTHTCPPCPAPPVAGPSVFLFPPKPKDTLMISRTPEVTCVVVDVSHEDPEVKFNWYVDGVEVHNAKTKPREEQYNSTYRVVSVLTVLHQDWLNGKEYKCKVSNKALPAPIEKTISKAKGQPREPQVYTLPPSRDELTKNQVSLTCLVKGFYPSDIAVEWESNGQPENNYKTTPPVLDSDGSFFLYSKLTVDKSRWQQGNVFSCSVMHEALHNHYTQKSLSLSPGK
light: not shown
notes: heavy chain carries the IgG1 constant region with PVAdelG, light chain is kappa; also called anti-TREM1 clone A; Anti-TREM1 Antibody Clone A
B1: the Kd in the assay with hFcγRIIA167R [1] was determined as 28.4 µM; with hFcγRIIIA176V [2] it was 6.66 µM; in assay [12], 0.0019 µM; in the assay with hFcγRIIA167R [17] it was 28.3 µM; in the assay with hFcγRIIIA176V [18], 6.49 µM. In addition, the “Ratio (against Trastuzumab; not defined)” value with hFcγRIIA167R [3] turned out to be 0.33; with hFcγRIIIA176V [4], 0.05; with hFcγRIIA167R [5], 0.33; with hFcγRIIIA176V [6], 0.05. The IC50 with recombinant hTREM1-chFc1 [7] stood at 0.0045 µM. In the assay with recombinant hTREM1-chFc1 [8], the “IC50 (read off the curve)” value is about 0.005 µM. The binding result in the assay with purified human C1q is reported as “no binding”; in assay [14] it was “no binding (tested: 3 ug/mL)”; in assay [15], “binds”; in assay [16], “no binding (tested: 5 µg/mL)”. The “Maximum BLI response” value in assay [9] amounted to 0.006 nm; in assay [10], 0.005 nm; in assay [11], 0.005 nm; in [12], 0.343 nm; in assay [13], 0.013 nm.
